According to patent US20170165335A1 (IMMATICS BIOTECHNOLOGIES, published 2017):

B1: KMDASLGNLFA (peptide)
peptide: KMDASLGNLFA
notes: synthetic peptide
B2: MLMPVHFLL (peptide)
peptide: MLMPVHFLL
notes: synthetic peptide
B3: FLGKVVIDV (peptide)
peptide: FLGKVVIDV
notes: synthetic peptide

These binders were tested against peptide-receptive MHC class I molecule (HLA-A*02:01 with beta-2-microglobulin) of the UV-ligand exchange assay (human) (assay: UV-ligand exchange + anti-b2m ELISA; peptide exchange yield grade (++++ = >=75%)).
From the text: Candidate peptides for T cell based therapies according to the present invention were further tested for their MHC binding capacity (affinity). The individual peptide-MHC complexes were produced by UV-ligand exchange, where a UV-sensitive peptide is cleaved upon UV-irradiation, and exchanged with the peptide of interest as analyzed. Only peptide candidates that can effectively bind and stabilize the peptide-receptive MHC molecules prevent dissociation of the MHC complexes. To determine the yield of the exchange reaction, an ELISA was performed based on the detection of the light chain (β2m) of stabilized MHC complexes. The assay was performed as generally described in Rodenko et al. (Rodenko et al., 2006).
96 well MAXISorp plates (NUNC) were coated over night with 2 ug/ml streptavidin in PBS at room temperature, washed 4× and blocked for 1 h at 37° C. in 2% BSA containing blocking buffer. Refolded HLA-A*02:01/MLA-001 monomers served as standards, covering the range of 15-500 ng/ml. Peptide-MHC monomers of the UV-exchange reaction were diluted 100 fold in blocking buffer. Samples were incubated for 1 h at 37° C., washed four times, incubated with 2 ug/ml HRP conjugated anti-β2m for 1 h at 37° C., washed again and detected with TMB solution that is stopped with […]. Absorption was measured at 450 nm. Candidate peptides that show a high exchange yield (preferably higher than 50%, most preferred higher than 75%) are generally preferred for a generation and production of antibodies or fragments thereof, and/or T cell receptors or fragments thereof, as they show sufficient avidity to the MHC molecules and prevent dissociation of the MHC complexes.

Peptide exchange yield, ≥ 75%:
B1
B2
B3
